Publication PMC6555802, “CHML promotes liver cancer metastasis by facilitating Rab14 recycle” (Nature Communications, 2019)

Target: T1, Rab14 (fluorescence titration) (human, UniProt P61106 1-215)
T1 construct: Rab14
Assay: other fluorescence titration; fluorescence titration assay (Supplementary Fig. 8); conditions not stated in the text shown
Details: both partners purified

- Kd: ~0.36 nM
B1: CHML (fluorescence titration) (natural protein)
chain: MADNLPTEFDVVIIGTGLPESILAAACSRSGQRVLHIDSRSYYGGNWASFSFSGLLSWLKEYQQNNDIGEESTVVWQDLIHETEEAITLRKKDETIQHTEAFCYASQDMEDNVEEIGALQKNPSLGVSNTFTEVLDSALPEESQLSYFNSDEMPAKHTQKSDTEISLEVTDVEESVEKEKYCGDKTCMHTVSDKDGDKDESKSTVEDKADEPIRNRITYSQIVKEGRRFNIDLVSKLLYSQGLLIDLLIKSDVSRYVEFKNVTRILAFREGKVEQVPCSRADVFNSKELTMVEKRMLMKFLTFCLEYEQHPDEYQAFRQCSFSEYLKTKKLTPNLQHFVLHSIAMTSESSCTTIDGLNATKNFLQCLGRFGNTPFLFPLYGQGEIPQGFCRMCAVFGGIYCLRHKVQCFVVDKESGRCKAIIDHFGQRINAKYFIVEDSYLSEETCSNVQYKQISRAVLITDQSILKTDLDQQTSILIVPPAEPGACAVRVTELCSSTMTCMKDTYLVHLTCSSSKTAREDLESVVKKLFTPYTETEINEEELTKPRLLWALYFNMRDSSGISRSSYNGLPSNVYVCSGPDCGLGNEHAVKQAETLFQEIFPTEEFCPPPPNPEDIIFDGDDKQPEAPGTNNVVMAKLESSEESKNLESPEKHLQN
notes: choroideremia-like (CHML, REP2)
